Source: patent publication US20160313325A1

What was measured:
[1] = molecular target: gp41 of mutant "G-I-A" (pNL-Bal with Valine to Alanine at position 38 of gp41) (HIV-1 clone BAL2 (subtype B, CCR5-tropic))
[2] = molecular target: gp41 of pNL4-3 (HIV-1 pNL4-3 (subtype B, CXCR4-tropic))
[3] = molecular target: gp41 of mutant "D-I-A" (pNL-Bal with Glycine to Aspartic Acid at position 36 and Valine to Alanine at position 38 of gp41) (HIV-1 clone BAL2 (subtype B, CCR5-tropic))
[4] = molecular target: gp41 of mutant "G-I-A" (pNL-Bal with Valine to Alanine at position 38 of gp41) (HIV-1 clone BAL2 (subtype B, CCR5-tropic)); remark: listed apart in the source

Substance: T20 (Enfuvirtide, Fuzeon) (peptide)
- Resistance factor (IC50mut/IC50wt) IC50 fold increase [1]: 13 fold
- IC50 (nM), inhibition of viral replication, deCIPhR cell to cell infection [2]: 76 nM
- IC50 (nM), inhibition of viral replication, virus to cell infection [2]: 48 nM
- IC50 (nM), inhibition of viral replication, deCIPhR [3]: 2270 nM
- Rf (resistance factor, IC50 on mutant virus / IC50 on reference strain) [3]: 227 fold
- IC50 (nM), inhibition of viral replication, deCIPhR [4]: 127 nM
- Rf (resistance factor, IC50 on mutant virus / IC50 on reference strain) [4]: 12.7 fold
